Experimental data as given in patent publication US12723279B2, “Long stokes shift chromenoquinoline dyes and uses in sequencing applications” (priority 2020, dated 2026).

Assays:
Assay type in all cases: physicochemical
[1] = UV-Vis absorption of chromenoquinoline dye labeled ffA nucleotides
Method: (§1) The chromenoquinoline dye of Formula (I) (0.020 mmol) was coevaporated with 2×2 mL of anhydrous N,N′-dimethylformamide (DMF), then dissolved in 2 mL of anhydrous N,N′-dimethylacetamide (DMA). N,N-diisopropylethylamine (28.4 μL, 0.163 mmol) was added, followed by N,N,N′,N′-tetramethyl-O—(N-succinimidyl)uronium tetrafluoroborate as 0.1 M solution in anhydrous DMA (TSTU, 232 μL, 0.023 mmol). The reaction was stirred under nitrogen at RT for 30 minutes. In the meantime, an aqueous solution of the 2′-deoxyadenosine triphosphates-linker (0.01 mmol) was evaporated to dryness under reduced pressure and resuspended in 200 μL, of 0.1 M triethylammonium bicarbonate (TEAB) solution in water. The activated chromenoquinoline dye solution was added to the triphosphate and the reaction was stirred at RT for 18 hours. The crude product was purified firstly by ion-exchange chromatography on DEAE-Sephadex A25 (25 g). The fractions containing the triphosphate were pooled and the solvent was evaporated to dryness under reduced pressure. The crude material was further purified by preparative scale RP-HPLC using a YMC-Pack-Pro C18 column. The final compound was characterized by LC-MS, analytical RP-HPLC and UV-Vis spectroscopy.
(§2) In this example, the spectral properties of several fully functionalized A nucleotides (ffAs) conjugated with the chromenoquinoline dyes described herein were characterized. FIG. 1 illustrates the […] of ffA nucleotides conjugated with chromenoquinoline dyes I-1 through I-6 and I-8 as a 2 μM solution in Universal Scan Mix (USM, 1 M Tris pH 7.5, 0.05% TWEEN, 20 mM sodium ascorbate, 10 mM ethyl gallate). FIGS. 2A-2D show the fluorescence emission spectra of ffA nucleotide conjugated with chromenoquinoline dyes I-1 through I-6 and I-8 acquired using either 450 nm or 520 nm as excitation wavelengths in USM. The spectra were acquired on an Agilent Cary 100 UV-Vis Spectrophotometer and on a Cary Eclipse Fluorescence Spectrophotometer, using quartz or plastic cuvettes. It was observed that the chromenoquinoline dyes described herein can be excited under both blue and green light sources and also have strong fluorescent emission.

[2] = Fluorescence emission of chromenoquinoline dye labeled ffA nucleotides
Method: as §1, §2

[3] = Stability of dye labeled ffAs in aqueous solution at high pH (ethanolamine and glycine buffers, 45° C.); details: 10 μM, dark, vs ffC labeled with coumarin reference dye A
Method: The stability of the compounds ffA-sPA-I-3 and ffA-sPA-I-4 in an aqueous solution at high pH was assessed by incubating a 10 μM solution of the given compound in two buffers: 1) 50 mM ethanolamine buffer, pH 9.6, 50 mM NaCl, 1 mM EDTA, 0.02% CHAPS, 4 mM MgSO4; 2) 50 mM glycine buffer, pH 9.8, 50 mM NaCl, 1 mM EDTA, 0.2% CHAPS, 4 mM MgSO4 at 45° C. in the dark for 6 days. At set time points, the UV-VIS absorption and fluorescence emission of the solutions were measured on an Agilent Cary 100 UV-Vis Spectrophotometer and on a Cary Eclipse Fluorescence Spectrophotometer, using quartz cuvettes. In addition, aliquots of the solutions were taken and analyzed by analytical HPLC. […] The coumarin reference dye A is disclosed in U.S. Publication No. 2018/0094140, having the structure moiety

[4] = 50 mM ethanolamine buffer pH 9.6, 45° C., 6 days (FIG. 3A)
[5] = 50 mM glycine buffer pH 9.8, 45° C., 6 days (FIG. 3B)

SMILES | UV-VIS λmax [1] [nm] | Fluorescence em. λmax [2] [nm] | fluorescence emission over time [3, 4] | fluorescence emission over time [3, 5]
C=CCOCOC1C[C@H](n2cc(/C=C/CNC(=O)COC(COc3cccc(C(=O)NCCCCCNC(=O)CCCN4CCCc5cc6c(cc54)OCc4cc5cc(OC)c(OC)cc5[n+](C)c4-6)c3)OCC=C)c3c(N)ncnc32)O[C@@H]1COP(=O)(O)OP(=O)(O)OP(=O)(O)O (stereo partly shown) [ffA-(DB)-AOM-AOL-I-4] | 500 | 578 |  | 
COc1ccc2c(c1)cc1c([n+]2C)-c2cc3c(cc2OC1)N(CCCC(=O)NCCNC(=O)c1cccc(OCC(N=[N+]=[N-])OCCOCC(=O)NCC#Cc2cn([C@H]4CC(OCN=[N+]=[N-])[C@@H](COP(=O)(O)OP(=O)(O)OP(=O)(O)O)O4)c4ncnc(N)c24)c1)CCC3 (stereo partly shown) [ffA-LN3-I-1] | 503 | 590 |  | 
Cc1ccc2c(c1)cc1c([n+]2C)-c2cc3c(cc2OC1)N(CCCC(=O)NCCNC(=O)c1cccc(OCC(N=[N+]=[N-])OCCOCC(=O)NCC#Cc2cn([C@H]4CC(OCN=[N+]=[N-])[C@@H](COP(=O)(O)OP(=O)(O)OP(=O)(O)O)O4)c4ncnc(N)c24)c1)CCC3 (stereo partly shown) [ffA-LN3-I-2] | 500 | 582 |  | 
CCN(CC)c1ccc2c(c1)OCc1cc3cc(CC(=O)NCCNC(=O)c4cccc(OCC(N=[N+]=[N-])OCCOCC(=O)NCC#Cc5cn([C@H]6CC(OCN=[N+]=[N-])[C@@H](COP(=O)(O)OP(=O)(O)OP(=O)(O)O)O6)c6ncnc(N)c56)c4)ccc3[n+](C)c1-2 (stereo partly shown) [ffA-LN3-I-6] | 495 | 574 |  | 
COc1cc2cc3c([n+](C)c2cc1OC)-c1cc2c(cc1OC3)N(CCCC(=O)NCCCCCNC(=O)c1cccc(OCC(N=[N+]=[N-])OCC(=O)NCC#Cc3cn([C@H]4CC(OCN=[N+]=[N-])[C@@H](COP(=O)(O)OP(=O)(O)OP(=O)(O)O)O4)c4ncnc(N)c34)c1)CCC2 (stereo partly shown) [ffA-sPA-LN3-I-4] | 500 | 578 | decreased very slowly over time | decreased very slowly over time
C=CCOCOC1C[C@H](n2cc(C#CCNC(=O)COC(COc3cccc(C(=O)NCCCCCNC(=O)CCCN4CCCc5cc6c(cc54)OCc4cc5cc(OC)c(OC)cc5[n+](C)c4-6)c3)OCC=C)c3c(N)ncnc32)O[C@@H]1COP(=O)(O)OP(=O)(O)OP(=O)(O)O (stereo partly shown) [ffA-AOM-AOL-I-4] | 500 | 578 |  | 
COc1ccc2c(c1)cc1c([n+]2C)-c2cc3c(cc2OC1)N(CCCC(=O)NCCNC(=O)c1cccc(OCC(N=[N+]=[N-])OCCOCC(=O)NCC#Cc2cn([C@H]4CC(OCN=[N+]=[N-])[C@@H](COP(=O)(O)OP(=O)(O)OP(=O)(O)O)O4)c4ncnc(N)c24)c1)C(C)(C)CC3C (stereo partly shown) [ffA-LN3-I-5] | 501 | 585 |  | 
Cc1cc2cc3c([n+](C)c2cc1C)-c1cc2c(cc1OC3)N(CCCC(=O)NCCCCCNC(=O)c1cccc(OCC(N=[N+]=[N-])OCC(=O)NCC#Cc3cn([C@H]4CC(OCN=[N+]=[N-])[C@@H](COP(=O)(O)OP(=O)(O)OP(=O)(O)O)O4)c4ncnc(N)c34)c1)CCC2 (stereo partly shown) [ffA-sPA-LN3-I-3] | 500 | 578 | decreased very slowly over time | decreased very slowly over time
COc1cc2c(cc3c([n+]2C)-c2cc4c(cc2OC3)N(CCCC(=O)NCCCCCNC(=O)c2cccc(OCC(N=[N+]=[N-])OCC(=O)NCC#Cc3cn([C@H]5CC(OCN=[N+]=[N-])[C@@H](COP(=O)(O)OP(=O)(O)OP(=O)(O)O)O5)c5ncnc(N)c35)c2)CCC4)c(OC)c1OC (stereo partly shown) [ffA-sPA-LN3-I-8] | 500 | 583 |  | 
